The values that follow are results of earlier work, collected in PMC3085179.

The data set deals with intermediate affinity IL-2 receptor (Homo sapiens) (UniProt P14784).
UniProt P14784, sequence (P14784 27-240, chain 1 of 2): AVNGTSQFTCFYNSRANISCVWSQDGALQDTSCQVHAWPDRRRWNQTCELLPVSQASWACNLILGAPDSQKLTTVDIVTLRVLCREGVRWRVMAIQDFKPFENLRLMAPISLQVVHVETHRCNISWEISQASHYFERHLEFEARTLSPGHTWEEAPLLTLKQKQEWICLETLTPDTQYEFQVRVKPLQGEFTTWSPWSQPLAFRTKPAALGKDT
UniProt P14784, sequence (P31785 23-262, chain 2 of 2, further chain): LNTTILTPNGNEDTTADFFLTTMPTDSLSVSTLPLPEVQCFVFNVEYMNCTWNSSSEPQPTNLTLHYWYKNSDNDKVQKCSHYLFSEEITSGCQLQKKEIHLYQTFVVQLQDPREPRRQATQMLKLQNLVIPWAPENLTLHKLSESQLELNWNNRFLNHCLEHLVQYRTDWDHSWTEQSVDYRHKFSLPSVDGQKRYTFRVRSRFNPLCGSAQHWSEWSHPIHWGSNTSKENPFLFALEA

IL-2, sequence (P60568 21-153): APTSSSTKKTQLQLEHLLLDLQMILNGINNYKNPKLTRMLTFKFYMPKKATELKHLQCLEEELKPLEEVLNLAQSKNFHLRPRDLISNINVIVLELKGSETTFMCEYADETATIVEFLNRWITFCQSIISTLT

For IL-2 (from UniProt P60568), the Kd is 1 nM.

As a reminder, the Kd is a measure of binding affinity in units of concentration.
